Laboratory results reported in article PMC5740674 (Proceedings of the National Academy of Sciences of the …, 2017).
Substitutions are numbered along the chain they refer to. In names and notes the source's numbering stands. One block for each binder: values may come before it. Square brackets hold non-standard residues; d marks the D form. Ends that are not written are not given here. pT = C[C@@H](OP(=O)(O)O)[C@H](N)C(=O)O

T1: GST-Cnp3(fl), full-length Cnp3 (S. pombe, UniProt Q9USR9 1-643)
T1 sequence (looked up): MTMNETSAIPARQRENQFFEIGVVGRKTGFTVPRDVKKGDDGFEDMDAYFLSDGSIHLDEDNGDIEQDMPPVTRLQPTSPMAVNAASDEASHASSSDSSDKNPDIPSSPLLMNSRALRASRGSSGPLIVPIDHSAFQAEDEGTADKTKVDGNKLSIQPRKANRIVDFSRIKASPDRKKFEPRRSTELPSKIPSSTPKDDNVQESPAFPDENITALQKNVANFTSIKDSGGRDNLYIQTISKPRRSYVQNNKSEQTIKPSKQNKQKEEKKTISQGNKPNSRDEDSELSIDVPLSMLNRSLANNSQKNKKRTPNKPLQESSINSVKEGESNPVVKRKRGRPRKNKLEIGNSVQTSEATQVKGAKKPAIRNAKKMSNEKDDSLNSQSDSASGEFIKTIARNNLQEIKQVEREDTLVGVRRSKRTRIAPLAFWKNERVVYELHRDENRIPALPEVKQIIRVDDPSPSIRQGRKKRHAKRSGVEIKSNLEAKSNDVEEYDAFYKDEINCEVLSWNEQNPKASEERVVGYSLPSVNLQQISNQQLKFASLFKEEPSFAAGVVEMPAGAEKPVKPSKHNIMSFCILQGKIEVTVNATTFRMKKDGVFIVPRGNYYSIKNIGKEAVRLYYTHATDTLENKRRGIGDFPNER

T2: Mis12, full length (subunit of the Mis12–Nnf1 complex) (S. pombe, UniProt Q9Y738 1-259)
T2 sequence (looked up): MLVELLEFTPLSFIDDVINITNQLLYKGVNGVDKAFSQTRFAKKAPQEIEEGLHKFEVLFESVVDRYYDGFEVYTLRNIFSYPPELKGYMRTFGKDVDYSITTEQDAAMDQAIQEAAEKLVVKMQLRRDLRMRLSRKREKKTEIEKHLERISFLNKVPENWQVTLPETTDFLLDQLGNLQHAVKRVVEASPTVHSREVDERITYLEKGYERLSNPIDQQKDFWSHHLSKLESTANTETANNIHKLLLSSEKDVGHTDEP

T3: Dsn1^DD–Nsl1 subcomplex (Dsn1 S68D S77D) (S. pombe, UniProt Q9UUB5 1-329; Q9P6M3 1-210, S68D | S77D)
T3 sequence (looked up) 1: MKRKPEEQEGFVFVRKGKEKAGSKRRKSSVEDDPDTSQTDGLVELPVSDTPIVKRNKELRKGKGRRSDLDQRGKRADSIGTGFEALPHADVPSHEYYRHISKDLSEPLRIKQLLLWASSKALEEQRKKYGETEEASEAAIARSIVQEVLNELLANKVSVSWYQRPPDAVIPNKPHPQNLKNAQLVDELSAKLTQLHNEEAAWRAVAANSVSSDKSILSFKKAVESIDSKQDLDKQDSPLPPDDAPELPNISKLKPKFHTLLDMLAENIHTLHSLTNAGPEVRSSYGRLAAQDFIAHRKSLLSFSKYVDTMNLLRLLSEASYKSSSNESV
T3 sequence (looked up) 2: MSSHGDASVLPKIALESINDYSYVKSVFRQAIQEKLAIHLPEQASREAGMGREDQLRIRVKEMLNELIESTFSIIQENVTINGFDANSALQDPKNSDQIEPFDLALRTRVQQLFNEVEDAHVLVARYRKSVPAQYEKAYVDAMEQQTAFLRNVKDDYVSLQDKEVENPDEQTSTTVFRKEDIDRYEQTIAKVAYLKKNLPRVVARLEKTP

B1: GST-Cnp3(1–60)^WT (domain or fragment, S. pombe, UniProt Q9USR9 1-60, looked up)
chain: MTMNETSAIPARQRENQFFEIGVVGRKTGFTVPRDVKKGDDGFEDMDAYFLSDGSIHLDE
B2: Mis12–Nnf1 complex with Mis12 Y67A (complex, S. pombe)
chain 1: T2 sequence (looked up) with Y67A
chain 2: MTSRKEQLDAFLSRTLSETIAHIPLEKFAQCFPSMKKGKVIAVIHQQLIEFFEKSCKQEYANLIKERDLNKKLDMLDECIHDAEFRKLHGESEVDISNKQPQEILKAHLYSHKRELLDKLNQDLLDIDKENEGLSTQIAGEEKATEDCISRMQSLIQKLEKTVYGMNEKNLAKEAHDTLNDLLPYIQNPSSTWTNALNEQGNIER
B3: GST-Cnp3(1–155)^T28A (domain or fragment, S. pombe, UniProt Q9USR9 1-155, looked up)
chain: MTMNETSAIPARQRENQFFEIGVVGRKAGFTVPRDVKKGDDGFEDMDAYFLSDGSIHLDEDNGDIEQDMPPVTRLQPTSPMAVNAASDEASHASSSDSSDKNPDIPSSPLLMNSRALRASRGSSGPLIVPIDHSAFQAEDEGTADKTKVDGNKLS
B4: GST-Cnp3(1–155) (domain or fragment, S. pombe, UniProt Q9USR9 1-155, looked up)
chain: B3 chain with A28T
B5: Mis12–Nnf1 complex with Mis12 R66A (complex, S. pombe)
chain 1: T2 sequence (looked up) with R66A
chain 2: B2 chain 2
B6: Nnf1, full length, untagged (subunit of the Mis12–Nnf1 complex) (natural protein, S. pombe, UniProt Q09858 1-205, looked up)
chain: B2 chain 2
B7: Dsn1–Nsl1 subcomplex (complex, S. pombe)
chain 1: T3 sequence (looked up) 1 with D68S, D77S
chain 2: T3 sequence (looked up) 2
B8: Mis12–Nnf1 complex (full-length Mis12 and full-length Nnf1) (complex, S. pombe)
chain 1: T2 sequence (looked up)
chain 2: B2 chain 2

Legend:
[1] = target: B8; assay: pull-down
[2] = target: T1, GST-Cnp3(fl), full-length Cnp3; assay: pull-down
[3] = target: T2, Mis12, full length (subunit of the …); assay: SEC-MALS
[4] = target: B8; assay: ITC
[5] = target: B8; assay: SEC-MALS
[6] = target: T3, Dsn1^DD–Nsl1 subcomplex (Dsn1 S68D S77D); assay: SEC-MALS

Binder: B1
binding result [1]: binds

binding result [1]: binds
Binder: RKTGFTVPRDVKKGDDGFEDMDAYF (domain or fragment, S. pombe, UniProt Q9USR9 26-50, looked up) [GST-Cnp3(26–50)]

Binder: B2
binding result [2]: binds

Binder: B3
binding result [1]: binds

Binder: B4
binding result [1]: binds

Binder: B5
binding result [2]: binds

Binder: B6
stoichiometry N [3]: 1

Kd [4]: 92 µM
Binder: RK[pT]GFTVPRDVKKGDDGFEDMDAYFLS (peptide, UniProt Q9USR9 26-52, looked up) [Cnp3(26–52)^pT28 peptide]

Binder: B7
stoichiometry N [5]: 1

Binder: B8
binding result [6]: binds
binding result [2]: binds

Kd [4]: 12.6 µM
Binder: RKTGFTVPRDVKKGDDGFEDMDAYFLS (peptide, UniProt Q9USR9 26-52, looked up) [Cnp3(26–52) peptide]
